Test results as given in patent US20210261622A1 (Janssen / Centocor, published 2021).
Bridge positions count the residues as written; N and C are the ends. Square brackets hold non-standard residues; d marks the D form. Trp(7-Ph) = N[C@@H](Cc1c[nH]c2c(-c3ccccc3)cccc12)C(=O)O; Trp(5-CN) = N#Cc1ccc2[nH]cc(C[C@H](N)C(=O)O)c2c1; Trp(7-Me) = Cc1cccc2c(C[C@H](N)C(=O)O)c[nH]c12; 2Nal = N[C@@H](Cc1ccc2ccccc2c1)C(=O)O; AEF = NCCOc1ccc(C[C@H](N)C(=O)O)cc1; dNMeY = CN[C@H](Cc1ccc(O)cc1)C(=O)O; 3Pal = N[C@@H](Cc1cccnc1)C(=O)O; Cit = NC(=O)NCCC[C@H](N)C(=O)O; αMeL = CC(C)C[C@](C)(N)C(=O)O; Pen = CC(C)(S)[C@H](N)C(=O)O; Trp(5-Ca) = not defined here; αMeK = C[C@](N)(CCCCN)C(=O)O; Ac5c = NC1(C(=O)O)CCCC1; Thp = NC1(C(=O)O)CCOCC1; Abu = CC[C@H](N)C(=O)O; Sar = CNCC(=O)O

B1: Peptide No. 142 (peptide)
peptide: Ac-[Pen]NT[Trp(7-(3-carboxamidophenyl))]K(Ac)[Pen][AEF][2Nal][Thp]EN[3Pal][Sar]-NH2
modifications: disulfide 1-6 (inferred)
B2: Peptide No. 160 (peptide)
peptide: Ac-[Pen]NT[Trp(5-Ca)]K(Ac)[Pen][AEF][2Nal][Thp]EN[3Pal][Sar]-NH2
modifications: disulfide 1-6; reading uncertain; also: printed as Ac-[Pen]-N-T-[W(5-Ca)]-[Lys(Ac)]-[Pen]-Phe[4-(2-aminoethoxy)]-[2-Nal]-[THP]-E-N-[3Pal]-[Sarc]-NH2; Pen-Pen disulfide
B3: Peptide No. 88 (peptide)
peptide: Ac-[dR][Pen]NT[Trp(7-Me)]K(Ac)[Pen][AEF][2Nal][Thp]ENN[dNMeY]-NH2
modifications: disulfide 2-7
B4: Peptide No. 8 (peptide)
peptide: RXQTWQCFXXENNY
modifications: Ac-[(D)Arg]-[Abu]-Q-T-W-Q-[Cys]-Phe[4-(2-aminoethoxy)]-[2-Nal]-[THP]-E-N-N-[(D)NMeTyr]-NH2; Abu-Cys thioether
B5: Peptide No. 154 (peptide)
peptide: Ac-[Pen]NT[Trp(5-CN)]K(Ac)[Pen][AEF][2Nal][Thp]EN[3Pal][Sar]-NH2
modifications: disulfide 1-6 (inferred)
B6: Peptide No. 17 (peptide)
peptide: Ac-[Abu]QT[Trp(7-Me)]K(Ac)C[AEF][2Nal][αMeK]K(Ac)N[dK][Sar]-NH2
modifications: thioether 1-6
B7: Peptide No. 117 (peptide)
peptide: Ac-[Pen]NT[Trp(7-Ph)]K(Ac)[Pen][AEF][2Nal][Thp]K(Ac)N[3Pal][Sar]-NH2
modifications: disulfide 1-6
SMILES: CC(=O)NCCCC[C@@H]1NC(=O)[C@H](Cc2c[nH]c3c(-c4ccccc4)cccc23)NC(=O)[C@H]([C@@H](C)O)NC(=O)[C@H](CC(N)=O)NC(=O)[C@@H](NC(C)=O)C(C)(C)SSC(C)(C)[C@@H](C(=O)N[C@@H](Cc2ccc(OCCN)cc2)C(=O)N[C@@H](Cc2ccc3ccccc3c2)C(=O)NC2(C(=O)N[C@@H](CCCCNC(C)=O)C(=O)N[C@@H](CC(N)=O)C(=O)N[C@@H](Cc3cccnc3)C(=O)N(C)CC(N)=O)CCOCC2)NC1=O
B8: Peptide No. 18 (peptide)
peptide: Ac-[Abu]QT[Trp(7-Ph)]K(Ac)C[AEF][2Nal][αMeK]K(Ac)N[dK][Sar]-NH2
modifications: thioether 1-6
B9: Peptide No. 150 (peptide)
peptide: Ac-[Pen]NT[Trp(5-Ph)]K(Ac)[Pen][AEF][2Nal][Thp]EN[3Pal][Sar]-NH2
modifications: disulfide 1-6 (inferred)
B10: Peptide No. 85 (peptide)
peptide: Ac-[Pen]NT[Trp(7-Me)][Cit][Pen][AEF][2Nal][αMeL]K(Ac)N[dH]-NH2
modifications: disulfide 1-6
SMILES: CC(=O)NCCCC[C@H](NC(=O)[C@](C)(CC(C)C)NC(=O)[C@H](Cc1ccc2ccccc2c1)NC(=O)[C@H](Cc1ccc(OCCN)cc1)NC(=O)[C@H]1NC(=O)[C@H](CCCNC(N)=O)NC(=O)[C@H](Cc2c[nH]c3c(C)cccc23)NC(=O)[C@H]([C@@H](C)O)NC(=O)[C@H](CC(N)=O)NC(=O)[C@@H](NC(C)=O)C(C)(C)SSC1(C)C)C(=O)N[C@@H](CC(N)=O)C(=O)N[C@H](Cc1c[nH]cn1)C(N)=O
B11: Peptide No. 235 (peptide)
peptide: Ac-[dR][Pen]NT[Trp(7-Me)]K(Ac)[Pen][AEF][2Nal][Ac5c]EN[3Pal][Sar]-NH2
modifications: disulfide 2-7
SMILES: CC(=O)NCCCC[C@@H]1NC(=O)[C@H](Cc2c[nH]c3c(C)cccc23)NC(=O)[C@H]([C@@H](C)O)NC(=O)[C@H](CC(N)=O)NC(=O)[C@@H](NC(=O)[C@@H](CCCNC(=N)N)NC(C)=O)C(C)(C)SSC(C)(C)[C@@H](C(=O)N[C@@H](Cc2ccc(OCCN)cc2)C(=O)N[C@@H](Cc2ccc3ccccc3c2)C(=O)NC2(C(=O)N[C@@H](CCC(=O)O)C(=O)N[C@@H](CC(N)=O)C(=O)N[C@@H](Cc3cccnc3)C(=O)N(C)CC(N)=O)CCCC2)NC1=O
B12: Peptide No. 121 (SEQ ID NO: 121) (peptide)
peptide: Ac-[Pen]NT[Trp(7-Me)]K(Ac)[Pen][AEF][2Nal][Thp]EN[3Pal][dNMeY]-NH2
modifications: disulfide 1-6
SMILES: CC(=O)NCCCC[C@@H]1NC(=O)[C@H](Cc2c[nH]c3c(C)cccc23)NC(=O)[C@H]([C@@H](C)O)NC(=O)[C@H](CC(N)=O)NC(=O)[C@@H](NC(C)=O)C(C)(C)SSC(C)(C)[C@@H](C(=O)N[C@@H](Cc2ccc(OCCN)cc2)C(=O)N[C@@H](Cc2ccc3ccccc3c2)C(=O)NC2(C(=O)N[C@@H](CCC(=O)O)C(=O)N[C@@H](CC(N)=O)C(=O)N[C@@H](Cc3cccnc3)C(=O)N(C)[C@H](Cc3ccc(O)cc3)C(N)=O)CCOCC2)NC1=O

Molecular target: T1, human IL-23R (human, UniProt Q5VWK5 24-629)
T1 sequence (looked up): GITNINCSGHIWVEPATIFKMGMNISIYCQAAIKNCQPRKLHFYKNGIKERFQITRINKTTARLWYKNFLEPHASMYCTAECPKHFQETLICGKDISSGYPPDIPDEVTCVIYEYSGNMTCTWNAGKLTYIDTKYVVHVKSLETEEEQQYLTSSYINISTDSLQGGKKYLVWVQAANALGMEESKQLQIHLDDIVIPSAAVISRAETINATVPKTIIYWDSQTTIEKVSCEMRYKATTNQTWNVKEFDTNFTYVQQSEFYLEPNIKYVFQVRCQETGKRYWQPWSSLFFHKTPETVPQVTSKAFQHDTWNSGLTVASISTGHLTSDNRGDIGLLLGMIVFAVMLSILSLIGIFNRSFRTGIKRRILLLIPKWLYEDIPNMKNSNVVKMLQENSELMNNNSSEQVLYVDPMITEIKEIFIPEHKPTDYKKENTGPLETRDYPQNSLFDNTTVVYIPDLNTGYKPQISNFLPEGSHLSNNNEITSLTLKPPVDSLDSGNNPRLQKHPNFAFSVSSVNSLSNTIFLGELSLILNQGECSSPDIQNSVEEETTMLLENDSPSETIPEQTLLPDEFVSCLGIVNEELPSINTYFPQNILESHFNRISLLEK
Test: cell-based or functional assay

Going from B1 to B2, the “pStat3 HTRF IC50” value rises from 90 pM to greater than 10 nM.

Going from B5 to B7, the “pStat3 HTRF IC50” value falls from greater than 10 nM to 20 pM.

In the case of B9, the “pStat3 HTRF IC50” value is reported as greater than 10 nM.

Compared with B3, B4 is lower in “PBMC pSTAT3 IC50” value: greater than 2 µM for the first, 1 nM for the second.

First: B6
Second: B8
The “PBMC pSTAT3 IC50” value of the first is lower: 0.791 nM for the first, 1.1 nM for the second.

For B10, the “PBMC pSTAT3 IC50” value was 3 nM.

Molecular target: T1, human IL-23R
Test: cell-based or functional assay
Remark: another data set of the same source

B11 was tested, and the “PBMC pSTAT3 IC50” value was 10 pM.

Molecular target: T2, interleukin-23 receptor (IL-23R) (human, UniProt Q5VWK5 24-629)
T2 sequence (looked up): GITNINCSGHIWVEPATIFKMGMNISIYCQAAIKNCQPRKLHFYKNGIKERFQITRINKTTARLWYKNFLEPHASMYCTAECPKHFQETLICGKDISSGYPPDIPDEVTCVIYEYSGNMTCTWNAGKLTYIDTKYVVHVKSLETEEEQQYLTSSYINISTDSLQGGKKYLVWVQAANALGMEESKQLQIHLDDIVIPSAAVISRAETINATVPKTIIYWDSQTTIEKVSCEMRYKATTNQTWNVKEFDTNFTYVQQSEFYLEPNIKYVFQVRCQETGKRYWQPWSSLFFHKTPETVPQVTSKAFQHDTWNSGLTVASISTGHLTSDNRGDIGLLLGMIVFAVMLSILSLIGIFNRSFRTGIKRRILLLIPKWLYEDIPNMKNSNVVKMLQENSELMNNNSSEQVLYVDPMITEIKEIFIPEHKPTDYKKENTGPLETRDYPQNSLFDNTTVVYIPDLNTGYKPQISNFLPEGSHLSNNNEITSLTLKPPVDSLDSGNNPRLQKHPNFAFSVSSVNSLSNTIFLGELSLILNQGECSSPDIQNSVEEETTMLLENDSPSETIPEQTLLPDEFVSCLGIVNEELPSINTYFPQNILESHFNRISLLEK
Test: cell-based or functional assay

For B12, the “IC50, NK Cell Assay (IFNγ in supernatant of human NK cells stimulated with IL-23 and IL-18)” value was 0.04 nM.
